The results in this text go back to publication PMC4919469 (2016).

For test [1], the target named is T1, Cdc42Δ7Q61L (human, UniProt P60953 1-184, Q61L). Put plainly: competition SPA vs GST-WASP GBD.
Target sequence in this assay (P60953 1-184 Q61L): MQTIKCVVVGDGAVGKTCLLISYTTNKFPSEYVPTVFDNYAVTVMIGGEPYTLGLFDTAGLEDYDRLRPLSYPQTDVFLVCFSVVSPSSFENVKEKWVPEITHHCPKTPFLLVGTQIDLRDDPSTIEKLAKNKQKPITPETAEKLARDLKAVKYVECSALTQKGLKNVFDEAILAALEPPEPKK
The target in test [2] is T1, Cdc42Δ7Q61L. Nature of the test: direct SPA, GTP-bound Cdc42.
Test [3] concerns the target T1, Cdc42Δ7Q61L. Nature of the test: direct SPA, GTP-bound Cdc42. This is another data set of the same source.

B1: N-WASP G protein-binding domain (GBD) (residues 197–255) (domain or fragment)
chain: KKKLTKADIGTPSNFQHIGHVGWDPNTGFDVNNLDPELKKLFDLCGISEAQLKDKETSK
Usually Kd stands for the constant that tells how readily two partners part at equilibrium. Lower therefore signals higher affinity. Take B1: the Kd in test [1] is 16 nM.
In the case of GLSAQDISQPLQNSFIHTGHGDSDPRHCWGFPDRIDELYLGN (domain or fragment) [GST-ACK GBD], binding in test [2] was put at a Kd of 46 nM.
Molecule ISLPSDFEHTIHVGFDAVTGEFTGMPEQWARLLQTSNITKSEQK (domain or fragment) [GST-PAK] returned a Kd in test [3] of 60 nM.

B2: His-SNAP-TOCA1 (full-length X. tropicalis TOCA1) (natural protein)
chain: MSWGTELWDQFDNLEKHTQWGIDFLDKYAKFVKERLEIEQNYAKQLRNLVKKYCPKRSAKDEEPRFTSCLSFYNILNELNDYAGQREVVAEEMGHRVYAEIMRYSNDIKGERKSHLQEGRKAQQYLDMCLKQMDNSKRKFERECREAEKAQQTYERLDNDSNATKSDVEKAKQQLHLRTHMADESKNEYAAQLQNYNAEQHKHFYIVIPQVYKHLQEMDERRTVKLSECYKGFADAERKVIPIISKCLEGMVQAAKSVDERRDSQIVVDCFKSGFEPNGDYPFEDYSQHIYRTVSDGTISTPKQESLKPDPRVTVGKAKGKLWLFGKKPKGPALEDFSHLPPEQRRKRLQQRIDELSRELQKEMDQKDALNKMKDVYEKNPQMGDPSSLHPKIAETTSNIERLRMEIHKNEAWLSEVEGKVSQRSERRHSAEANHLVAQGRESPEGSYTEDANQEGRVQPQPHAHPEFDDEFDDDEPLPAIGHCKSLYPFDGNNEGTLAMKEGEVLYIIEEDKGDGWTRARKQNGEEGYVPTSYIDITLEKNSKGAVTYI
With B2, the dissociation constant Kd in test [2] was over 1000 nM.

B3: His-SNAP-TOCA1 ΔSH3 (residues 1–480) (domain or fragment)
chain: MSWGTELWDQFDNLEKHTQWGIDFLDKYAKFVKERLEIEQNYAKQLRNLVKKYCPKRSAKDEEPRFTSCLSFYNILNELNDYAGQREVVAEEMGHRVYAEIMRYSNDIKGERKSHLQEGRKAQQYLDMCLKQMDNSKRKFERECREAEKAQQTYERLDNDSNATKSDVEKAKQQLHLRTHMADESKNEYAAQLQNYNAEQHKHFYIVIPQVYKHLQEMDERRTVKLSECYKGFADAERKVIPIISKCLEGMVQAAKSVDERRDSQIVVDCFKSGFEPNGDYPFEDYSQHIYRTVSDGTISTPKQESLKPDPRVTVGKAKGKLWLFGKKPKGPALEDFSHLPPEQRRKRLQQRIDELSRELQKEMDQKDALNKMKDVYEKNPQMGDPSSLHPKIAETTSNIERLRMEIHKNEAWLSEVEGKVSQRSERRHSAEANHLVAQGRESPEGSYTEDANQEGRVQPQPHAHPEFDDEFDDDEPLPA
Take B3: in test [2], the Kd was over 1000 nM.
